Results: patent US6429014B1, “Monoterpene synthases from grand fir (Abies grandis)” (Washington State University Research Foundation, priority 1997, dated 2002)

Assay: Terpene synthase assay and GC-MS / chiral GC product identification of recombinant enzymes expressed from pSBET in E. coli BL21(DE3) (Example 11)
Format: biochemical
Description: For functional expression, bacterial strains E. coli BL21(DE3)/pSAG2(M), E. coli BL21(DE3)/pSAG2(R), E. coli BL21(DE3)/pSAG3(R), E. coli BL21(DE3)/pSAG6(M), E. coli BL21(DE3/pSAG6(R), E. coli BL21(DE3)/pSAG8(M), E. coli BL21(DE3)/pSAG9(M), E. coli BL21(DE3)/pSAG11(M) and E. coli BL21(DE3)/SAG11(R) were grown to A600=0.5 at 37° C. in 5 ml of Luria-Bertani medium (Sambrook, J., Fritsch, E. F., and Maniatis, T. (1989) Molecular Cloning: A Laboratory Manual, 2nd Ed., pp. 7.20-7.43, Cold Spring Harbor, N.Y.) supplemented with 30 μg kanamycin/ml. Cultures were then induced by addition of 1 mM isopropyl-1-thio-β-D-galactopyranoside and grown for another 12 h at 20° C. Cells were harvested by centrifugation and disrupted by sonication followed by centrifugation, and the resulting soluble enzyme preparations were assayed for monoterpene, sesquiterpene and diterpene synthase activity using the appropriate radiolabeled substrate as described previously (Bohlmann, J., Steele, C. L., and Croteau, R. (1997) J. Biol. Chem. 272, 21784-21792). This assay involves the isolation and separation of terpene olefins and oxygenated terpenes by column chromatography on silica, followed by scintillation counting to determine conversion rate. GC-MS analysis is employed for product identification, by comparison of retention times and mass spectra to those of authentic standards (Bohlmann, J., Steele, C. L., and Croteau, R. (1997) J. Biol Chem. 272, 21784-21792); assignment of absolute configuration is based upon chiral column capillary GC and matching of retention time to that of the corresponding enantiomer (Lewinsohn, E., Savage, T. J., Gijzen, M., and Croteau, R. (1993) Phytochem. Anal. 4, 220-225). To insure production of sufficient material for identification, the standard assay (Bohlmann, J., Steele, C. L., and Croteau, R. (1997) J. Biol. Chem. 272, 21784-21792) was scaled up by a factor of 20.
Initially, the four pSBET plasmids pSAG6(M), pSAG8(M), pSAG9(M) and pSAG11(M), containing the full-length cDNA inserts of ag6 (SEQ ID NO:64), ag8 (SEQ ID NO:66), ag9 (SEQ ID NO:77) and ag11 (SEQ ID NO:68), respectively, were expressed in E. coli BL21(DE3). Extracts of the induced, transformed bacterial cells were assayed for monoterpene, sesquiterpene and diterpene synthase activity using the corresponding labeled C10, C15 and C20 prenyl diphosphate substrates (Bohlmann, J., Steele, C. L., and Croteau, R. (1997) J. Biol. Chem. 272, 21784-21792). […] Since it is known that the relatively large amino-terminal transit peptide of plant terpene synthases can impair expression of the functional preprotein in E. coli and promote the formation of intractable inclusion bodies (Williams, D. C., McGarvey, D. J., Katahira, E. J., and Croteau, R. (1998) Biochemisiry 37, 12213-12220), the“pseudomature” forms of ag6 (SEQ ID NO:64) and ag11 (SEQ ID NO:68) were prepared by truncation of the cDNAs to insert a starting methionine immediately upstream of their tandem arginine elements (R59R 60 for ag6 (SEQ ID NO:64), R^71R^72 for ag11 (SEQ ID NO:68)) for expression in E. coli BL21(DE3)/pSAG6(R) and E. coli BL21(DE3)/pSAG11(R). Similar truncations of previously characterized ag2.2 (SEQ ID NO:1) (myrcene synthase, R^64R^65) and ag3.18 (SEQ ID NO:3) ((−)-pinene synthase, (SEQ ID NO:5) R^64R^65) (Bohlmann, J., Steele, C. L., and Croteau, R. (1997) J. Biol. Chem. 272, 21784-21792) were prepared for expression from pSBET as controls for the possible alteration of product yield and distribution resulting from truncation.
Monoterpenes generated at preparative scale from geranyl diphosphate by the recombinant enzymes encoded by ag6 (SEQ ID NO:64), ag8 (SEQ ID NO:66), ag9 (SEQ ID NO:77) and ag11 (SEQ ID NO:68) were analyzed by GC-MS and chiral phase (β-cyclodextrin) capillary GC, and identified by comparison of retention times and mass spectra to authentic standards (FIGS. 6-9). […] The enzyme encoded by ag6 (SEQ ID NO:65) is therefore designated as (−)-1S,4R-camphene synthase. […]

[1] = from geranyl diphosphate, preparative scale

B1: ag6: recombinant (−)-camphene synthase from Grand fir encoded by clone ag6 (SEQ ID NO:64; protein SEQ ID NO:65) (protein, listed as Abies grandis)
chain: MALLSITPLVSRSCLSSSHEIKALRRTIPTLGICRPGKSVAHSINMCLTSVASTDSVQRRVGNYHSNLWDDDFIQSLISTPYGAPDYRERADRLIGEVKDIMFNFKSLEDGGNDLLQRLLLVDDVERLGIDRHFKKEIKTALDYVNSYWNEKGIGCGRESVVTDLNSTALGLRTLRLHGYTVSSDVLNVFKDKNGQFSSTANIQIEGEIRGVLNLFRASLVAFPGEKVMDEAETFSTKYLREALQKIPASSILSLEIRDVLEYGWHTNLPRLEARNYMDVFGQHTKNKNAAEKLLELAKLEFNIFHSLQERELKHVSRWWKDSGSPEMTFCRHRHVEYYALASCIAFEPQHSGFRLGFTKMSHLITVLDDMYDVFGTVDELELFTATIKRWDPSAMECLPEYMKGVYMMVYHTVNEMARVAEKAQGRDTLNYARQAWEACFDSYMQEAKWIATGYLPTFEEYLENGKVSSAHRPCALQPILTLDIPFPDHILKEVDFPSKLNDLICIILRLRGDTRCYKADRARGEEASSISCYMKDNPGLTEEDALNHINFMIRDAIRELNWELLKPDNSVPITSKKHAFDISRVWHHGYRYRDGYSFANVETKSLVMRTVIEPVPL
(−)-1S,4R-camphene share of monoterpene products [1]: 54% | (−)-1S,5S-α-pinene share of monoterpene products [1]: 32% | (−)-4S-limonene share of monoterpene products [1]: 7% | prenyl diphosphate substrate yielding terpene olefin products (C10, C15, C20 tested) (truncated forms pSAG6(R), pSAG11(R) in E. coli BL21(DE3)): only geranyl diphosphate yielded high levels of terpene olefin products

B2: ag9: recombinant terpinolene synthase from Grand fir encoded by clone ag9 (SEQ ID NO:77; protein SEQ ID NO:78) (protein, listed as Abies grandis)
chain: MALVSILPLSSKSVLHKSWIVSTYEHKAISRTIPNLGLRGRGKSVTHSLRMSLSTAVSDDHGVQRRIVEFHSNLWDDDFIQSLSTPYGAPSYRERADRLIVEVKGIFTSISAEDGELITPLNDLIQRLLMVDNVERLGIDRHFKNEIKAALDYVYSYWNEKGIGSGSDSGVADLNSTALGFRILRLHGYSVSSDVLEHFKEEKEKGQFVCSAIQTEEEIKSVLNLFRASLIAFPGEKVMEEAEIFSKIYLKEALQNIAVSSLSREIEYVLEDGWQTNMPRLETRNYIDVLGENDRDETLYMNMEKLLEIAKLEFNIFHSLQQRELKDLSRWWKDSGFSHLTFSRHRHVEFYALASCIETDRKHSGFRLGFAKMCHLITVLDDIYDTFGTMEELELFTAAFKRWDPSATDLLPEYMKGLYMVVYETVNEIAREADKSQGRETLNDARRAWEAYLDSYMKEAEWISSGYLPTFEEYMETSKVSFGYRIFALQPILTMDVPLTHHILQEIDFPLRFNDLICSILRLKNDTRCYKADRARGEEASCISCYMKENPGSTEEDAINHINAMVNNLIKEVNWELLRQDGTAHIACKKHAFDILKGSLHGYKYRDGFSVANKETKNWVRRTVLESVPL
terpene synthase activity on expression from pSBET in E. coli BL21(DE3) (extracts of induced cells): Enzymatic production of terpene olefin(s) was observed | (−)-1S,5S-α-pinene share of monoterpene products [1]: 18% | (−)-1S,5S-β-pinene share of monoterpene products [1]: 10% | (−)-4S-limonene share of monoterpene products [1]: 11% | terpinolene share of monoterpene products [1]: 42%
